Reference: US20250382376A1 (FUDAN UNIVERSITY, published 2025)
Residue numbers refer to the chain shown, from its start.

T1: CD73 on the surface of human cells (human, UniProt P21589 27-549)
T1 sequence (looked up): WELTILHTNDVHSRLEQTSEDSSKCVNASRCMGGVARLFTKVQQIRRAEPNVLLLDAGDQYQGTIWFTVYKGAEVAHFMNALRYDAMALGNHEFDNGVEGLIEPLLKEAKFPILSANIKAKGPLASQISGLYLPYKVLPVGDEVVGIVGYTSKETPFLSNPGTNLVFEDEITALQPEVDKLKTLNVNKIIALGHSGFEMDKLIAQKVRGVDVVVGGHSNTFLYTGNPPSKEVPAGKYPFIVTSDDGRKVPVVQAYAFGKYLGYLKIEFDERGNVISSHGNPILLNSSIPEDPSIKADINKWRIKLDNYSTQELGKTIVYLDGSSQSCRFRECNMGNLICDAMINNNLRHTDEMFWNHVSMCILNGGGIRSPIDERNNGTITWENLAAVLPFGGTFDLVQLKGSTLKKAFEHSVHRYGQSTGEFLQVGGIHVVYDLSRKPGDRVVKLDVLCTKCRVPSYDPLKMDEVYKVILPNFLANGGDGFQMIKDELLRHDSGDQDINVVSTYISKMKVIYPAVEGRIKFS

T2: extracellular domain of human CD73 protein, C-terminus polyhistidine-tagged (human, UniProt P21589 27-547)
T2 construct: also the immunogen; also called CD73-ECD; human CD73-ECD
T2 sequence: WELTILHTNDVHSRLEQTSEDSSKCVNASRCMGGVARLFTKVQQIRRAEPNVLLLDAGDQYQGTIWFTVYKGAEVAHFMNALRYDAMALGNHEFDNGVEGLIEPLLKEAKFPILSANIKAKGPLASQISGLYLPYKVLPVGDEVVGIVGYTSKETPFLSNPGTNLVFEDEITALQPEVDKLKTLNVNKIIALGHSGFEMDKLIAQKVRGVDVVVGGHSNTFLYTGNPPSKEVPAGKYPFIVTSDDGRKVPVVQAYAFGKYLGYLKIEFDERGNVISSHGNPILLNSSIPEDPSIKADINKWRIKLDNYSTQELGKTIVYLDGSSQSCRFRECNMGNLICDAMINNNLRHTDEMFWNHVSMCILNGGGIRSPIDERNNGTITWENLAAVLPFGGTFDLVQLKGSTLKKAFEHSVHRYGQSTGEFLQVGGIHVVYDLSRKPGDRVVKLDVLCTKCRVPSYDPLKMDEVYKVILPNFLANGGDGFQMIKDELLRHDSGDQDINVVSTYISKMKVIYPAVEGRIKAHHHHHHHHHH

B1: humanized nanobody-drug conjugate 3D7-HM9-FC1-MMAE (Fc fusion, part only; not given: Fc segment and drug payload, part only)
VHH, part: QRQLVESGGGLVQPGGSLRLSCAASGFLLDYYVIGWFRQAPGKEREGVSCISGSDRSTYYADSVKGRFTISRDNAKNTVYLQMSSLRAEDTAVYYCAADPSPVTVQAMCLPRFPVPYWGKGTLVTVSS
modifications: vc-MMAE on cysteines; expected DAR 4 for the dimer
B2: humanized antibody fusion protein 3D7-HM9-ABD (VHH)
VHH: B1 VHH, part
B3: 5-E11 derived antibody 5-E11AS (VHH, not shown: a dimerising Fc or GST)
VHH: ALQLVESGGGLVQPGGSLRLSCEVSGFTLDYYNIGWFRQAPGKEREGVSCSSASGGSTYYADSVKGRFTISRDNAKNTVYLQMNSLKPEDTGVYYCAAYRGWHPSLDARVYDYWGQGTEVTVSS
B4: 5-E11 derived antibody 5-E11GS (VHH, not shown: a dimerising Fc or GST)
VHH: B3 VHH with A53G
B5: 5-E11 derived antibody 5-E11QS (VHH, not shown: a dimerising Fc or GST)
VHH: B3 VHH with A53Q
B6: chimeric nanobody 3-A3 (Fc fusion)
VHH: QVQLVESGGGSVQPGGSLRLSCAASGFPLDYYTIGWFRQAPGKELEGVSCISSSDSSPYDADSVKGRFTMSRDNANNTVYLQMNSLKPEDTAVYYCAAQRYYYCSLRANVYDYWGQGTQVTVSS
notes: Tested as supernatant of transiently transfected HEK293F cells
B7: chimeric nanobody 2-G9 (Fc fusion)
VHH: B6 VHH with V2L, S11L, P28L, S105A, S124T
notes: as for B6
B8: chimeric nanobody 3-F1 (Fc fusion)
VHH: B6 VHH with G9V, G10S, S11L, P28T, V48I, S52R, G66D, V93D, R107T
notes: as for B6
B9: chimeric nanobody 1-E7 (Fc fusion)
VHH: B3 VHH with A1Q, L2V, E23A, V24A, S51I, A53N, G55D, G92A, E119Q
notes: as for B6
B10: chimeric nanobody 2-B10 (Fc fusion)
VHH: QLQLVESGGGLVQPGGSLRLSCAASGFTLDDNAIGWFRQAPGKEREGVACMRTSDGDTYYADSVKGRFTISRDNAKNTMYLQMNSLKPEDTAVYYCAAALGTYYSGFYYLAGDGMDYWGKGTLVTVSS
notes: as for B6

Molecular target: T1, CD73 on the surface of human cells
Test: cell-based or functional assay

Row | Binder | EC50, reversal of the AMP inhibition of human T lymphocyte proliferation | IC50, inhibition of the catalytic function of CD73 enzyme on MDA-MB-231 cells
1 | B1 | 0.0197 µg/mL | 
2 | B2 | 0.0467 µg/mL | 0.123 µg/mL

Molecular target: T2, extracellular domain of human CD73 …
Test: ELISA on CD73-ECD, 100 µL supernatant of antibody expression, second of two readings; PBS 0.19, 0.18

Row | Binder | ELISA reading (not named on the sheet)
3 | B3 | 4.27
4 | B4 | 4.22
5 | B5 | 4.28

Molecular target: T2, extracellular domain of human CD73 …
Test: ELISA on human CD73-ECD, 10 µL supernatant of transfected HEK293F cells; PBS blank 0.0615
Protocol: (§1) The CD73 protein extracellular region (CD73-ECD) was diluted to 1 μg/mL using the coating solution, and an ELISA plate was coated at 100 μL/well at 4° C. overnight. Excess antigens were washed away, and the plate was blocked with 1% BSA at room temperature for 2 hours. Then, 5-fold gradient dilutions of each monoclonal antibody were added at 100 μL/well and incubated at room temperature for 1 hour. Unbound antibodies were washed away, and an appropriate concentration of Staphylococcal protein A labeled with horseradish peroxidase was added at 100 μL/well and incubated at room temperature for 0.5 hours. Unbound secondary antibodies were washed away, and TMB color development solution was added to react for about 15 minutes. 1M HCL was added at 50 µL/well to terminate the color development reaction, and then the absorbance was measured at 450 nm and the data was analyzed.
(§2) For the five antibodies from yeast, after transient expression in HEK293F cells, the supernatant was collected after 2 days of continuous culture and ELISA assay was performed using 100 μL, 10 μL, and 1 μL of the supernatant.

Row | Binder | ELISA (OD450)
6 | B6 | 2.11 OD450
7 | B7 | 3.35 OD450
8 | B8 | 1.11 OD450
9 | B9 | 1.61 OD450
10 | B10 | 1.28 OD450

Molecular target: T2, extracellular domain of human CD73 …
Test: ELISA on CD73-ECD, 20 µL supernatant of antibody expression, second of two readings; PBS 0.19, 0.18
Protocol: as §1
(§3) CD73 antigen ELISA binding affinity test was performed according to the method of Example 3.

Row | Binder | ELISA reading (not named on the sheet)
11 | B3 | 4.33
12 | B4 | 4.3
13 | B5 | 4.29

Molecular target: T2, extracellular domain of human CD73 …
Test: ELISA on CD73-ECD, 100 µL supernatant of antibody expression, first of two readings; PBS 0.19, 0.18
Protocol: as §1, §3

Row | Binder | ELISA reading (not named on the sheet)
14 | B3 | 4.28
15 | B4 | 4.24
16 | B5 | 4.32

Molecular target: T2, extracellular domain of human CD73 …
Test: ELISA on CD73-ECD, 20 µL supernatant of antibody expression, first of two readings; PBS 0.19, 0.18
Protocol: as §1, §3

Row | Binder | ELISA reading (not named on the sheet)
17 | B3 | 4.24
18 | B4 | 4.15
19 | B5 | 4.17

Molecular target: T2, extracellular domain of human CD73 …
Test: ELISA on human CD73-ECD, 100 µL supernatant of transfected HEK293F cells; PBS blank 0.0675
Protocol: as §1, §2

Row | Binder | ELISA (OD450)
20 | B6 | 4.27 OD450
21 | B7 | 4.41 OD450
22 | B8 | 3.01 OD450
23 | B9 | 4.11 OD450
24 | B10 | 4.46 OD450

Molecular target: T2, extracellular domain of human CD73 …
Test: ELISA on CD73-ECD, 4 µL supernatant of antibody expression, first of two readings; PBS 0.19, 0.18
Protocol: as §1, §3

Row | Binder | ELISA reading (not named on the sheet)
25 | B3 | 4.25
26 | B4 | 4.22
27 | B5 | 4.23

Molecular target: T2, extracellular domain of human CD73 …
Test: ELISA on CD73-ECD, 4 µL supernatant of antibody expression, second of two readings; PBS 0.19, 0.18

Row | Binder | ELISA reading (not named on the sheet)
28 | B3 | 4.22
29 | B4 | 4.17
30 | B5 | 4.16

Molecular target: T2, extracellular domain of human CD73 …
Test: ELISA on human CD73-ECD, 1 µL supernatant of transfected HEK293F cells; PBS blank 0.073
Protocol: as §1, §2

Row | Binder | ELISA (OD450)
31 | B6 | 0.605 OD450
32 | B7 | 0.924 OD450
33 | B8 | 0.143 OD450
34 | B9 | 0.36 OD450
35 | B10 | 0.254 OD450

Molecular target: T2, extracellular domain of human CD73 …
Test: ELISA on CD73-ECD, 0.8 µL supernatant of antibody expression, first of two readings; PBS 0.19, 0.18
Protocol: as §1, §3

Row | Binder | ELISA reading (not named on the sheet)
36 | B3 | 4.22
37 | B4 | 4.16
38 | B5 | 4.17

Molecular target: T2, extracellular domain of human CD73 …
Test: ELISA on CD73-ECD, 0.8 µL supernatant of antibody expression, second of two readings; PBS 0.19, 0.18
Protocol: as §1, §3

Row | Binder | ELISA reading (not named on the sheet)
39 | B3 | 4.08
40 | B4 | 4.11
41 | B5 | 4.08
